Where no end group is shown, it is not given here. [ ]: non-standard residue; d: D form. pGlu = O=C1CC[C@@H](C(=O)O)N1
Legend:
[1] = system: autologous little gastrin (G17RM); assay: Cynomolgus monkeys immunized, serum IgG (MSD multiplex ELISA) against autologous little gastrin; format: in vivo, rhesus and cynomolgus monkey; details: 6 Cynomolgus monkeys, immunized d0, d14, d28; serum d0-d56
Source text: Time curve IgG anti G17 induction, after three injections with the vaccine (TYG100_2RM) on d0, d14 and d28. • A significant IgG induction was seen against the ScFV-coil1 and G17RM and G17H. No response was seen against a control peptide of similar molecular weight or when the animals were immunized with G17RM_2 without the presence of warhead.
6 Cynomolgus monkeys were immunized with TYG100_2RM and 6 were immunized with G17RM_2-coil on d0, d14 and d28. On d0, d14, d28, 42 and d56 serum was analyzed for the presence of IgG antibodies against autologous little gastrin (G17RM), little gastrin from humans (G17H), an irrelevant control peptide of similar MW as gastrin (control peptide) or against warhead (ScFV-coil1) using the multiplex ELISA system of Meso Scale Discovery (MSD) according to the MSD manual. […] The response against G17RM after three immunizations was 75% of the response against ScFV-coil1. This is remarkable since G17RM is a 100% autologous protein of only ˜1.2 kDa whereas ScFV-coil1 is a 100% allogeneic protein of >30 kDa. The anti G17RM antibodies cross reacted strongly with G17H. There was no response against G17RM when the G17RM_2-coil peptide was used without the warhead.

[2] = system: G17RM; assay: Balb/c mice immunized with TYG100 vaccine, serum IgG titre against G17RM; format: in vivo, mouse; details: peptide immunized without the warhead, Example 14
Protocol: (§1) 6 Balb/c Mice were immunized 3 times on day 0, day 14 and day 35 with TYG100_1RM or G17_1RM (without warhead) containing rhesus monkey G17 (58.4 μg/shot in 0.5 ml). Two weeks after last immunization, serum was taken and analyzed for the presence of IgG antibodies against G17RM, G17H and G17M (=G17 from the mouse)
as §1, with “TYG100_2RM” for “TYG100_1RM or G17_1RM (without warhead)”, “containing the first 13 immuno acids of” for “containing”, “(66.8” for “(58.4”

[3] = system: PBMC of Der p1 sensitized normal donors; assay: Stimulation of human PBMC with immunogen 5-12, IL-10 and IFNg ELISA (Example 10); format: cell-based; details: 24 h, 5, 1 or 0.5 μg/ml vs 3 μg/ml Der p1
Protocol: PBMCs of healthy human donors were cultured for 24 h in triplicate with Der p1 or immunogen 5. Supernatants were harvested and assayed for IL-10 and […] levels (each indicated as pg/ml; BDL=below detection limit) • Human T cells respond equally well to immunogen 5 as to Der p1, as measured by IL-10 and IFNg induction.
PBMC (100.000/well) of Der p1 sensitized normal donors were cultured in triplicate with medium, 3 μg/ml Der p1 or 5, 1 or 0.5 μg/ml immunogen 5-12 (Immo5-12) at 37° C./5% CO2 for 24 h. Supernatants were assayed in duplicate for IL-10 and IFNg levels using a commercially-available ELISA kits (eBioscience) in accordance with the manufacturer's instructions.

[4] = system: PBMC of Der p1 sensitized rhesus monkeys; assay: IL-10 and GM-CSF ELISA in supernatants of PBMC of Der p1 sensitized rhesus monkeys (Example 6); format: cell-based, rhesus monkeys (macaca mulatta); details: 3 and 5 μg/ml immunogen 3 vs Der p1, parallel cultures
Protocol: (§2) PBMCs from Der p1 sensitized rhesus monkeys (macaca mulatta) were cultured in triplicate with Der p1 or immunogen 3. Proliferation was assayed by the incorporation of [^3H]-thymidine. Results are shown as counts per minute.
(§3) PBMC (100.000/well) of Der p1 sensitized rhesus monkeys (macaca mulatta) were cultured in triplicate with medium, 3 Der p1 or 3 and 5 μg/ml immunogen 3 at 37° C./5% CO2. in the presence of 20 U/ml IL-2. Proliferation was assayed by the incorporation of [^3H]-thymidine (0.5 μCi/well) during the final 18 hrs of a 2-day culture. Cells were harvested for β-scintillation counting (Topcount NXT, Packard, Ramsey, Minn., USA). Results are shown as counts per minute. In addition from parallel cultures, supernatants were assayed in duplicate for IL-10 and GM-CSF levels using a commercially-available ELISA kit (U-Cytech, Utrecht, The Netherlands) in accordance with the manufacturer's instructions.

[5] = system: PBMC of Der p1 sensitized rhesus monkeys; assay: Proliferation ([3H]-thymidine) of PBMC of Der p1 sensitized rhesus monkeys (Example 6); format: cell-based, rhesus monkeys (macaca mulatta); details: 3 and 5 μg/ml immunogen 3 vs Der p1, 2-day culture, 20 U/ml IL-2
Protocol: as §2, §3

[6] = system: PBMC of Der p1 sensitized rhesus monkeys; assay: Warhead mediated enhanced antigen presentation, PBMC proliferation (Example 7); format: cell-based, rhesus monkeys (macaca mulatta)
Protocol: […] proliferation (assayed by the incorporation of [^3H]-thymidine) of Rhesus monkey (macaca mulatta) T cells after pre incubation for 30 ‘on ice with respectively warhead and Der p1 or warhead and immunogen 3. After each pre-incubation the cells were washed. (bdl=below detection limit). • Only when the immunogen could interact with the warhead through its coil (immunogen3) T cell proliferation in a dose dependent fashion could be seen. […] As positive control Der p1 is shown to be reactive after overnight incubation (without washing). • Warhead mediated antigen uptake is more efficient than uptake through pinocytosis
PBMC (100.000/well) of Der p1 sensitized rhesus monkeys (macaca mulatta) were preincubated (30 min on ice) with 1 μg/ml of warhead ScFV and washed 3 times with PBS or preincubated with PBS only and washed three times. Subsequently these cells incubated (30 min on ice) with different concentrations of Immunogen 3 or Der p1 at 3 μg/ml and washed 3 times with PBS after which the cells were culture at 37° C./5% CO2 in the presence of 20 U/ml IL-2 for 48 hours. As a positive control PBMCs (without warhead preincubation) were incubated with 3 μg/ml Der Pb without washing and cultured at 37° C./5% CO2 in the presence of 20 U/ml IL-2. Proliferation was assayed by the incorporation of [^3H]-thymidine (0.5 μCi/well) during the final 18 hrs of a 2-day culture. Cells were harvested for β-scintillation counting (Topcount NXT, Packard, Ramsey, Minn., USA). Results are shown as counts per minute.

[7] = system: mAb IV.3; assay: Mice immunized with ScFV-1-coil or warhead, serum IgG1 and IgG2a ELISA against mAb IV.3; format: in vivo, mouse; details: s.c. 2× 35 μg d0, d14, on Alum or in PBS, sera day 28
Protocol: (§4) 24 mice (6/group) were immunized s.c. 2× with 35 μg in 150 μl ScFV-1-coil or with warhead (ScFV-1-coil-M362) either formulated on Alum or diluted in PBS. Immunizations were done on d0, and d14, sera were taken on d0 (before immunization) and d28 and analyzed for IgG1 and IgG2a against ScFV-1-coil (indicated as ScFV) and mAb IV.3 by standard ELISA.

[8] = system: ScFV-1-coil; assay: Mice immunized with ScFV-1-coil or warhead, serum IgG1 and IgG2a ELISA against ScFV-1-coil; format: in vivo; details: s.c. 2× 35 μg d0, d14, on Alum or in PBS, sera day 28
Protocol: as §4

[9] = PBMC preincubated with 1 μg/ml warhead ScFV, washed, incubated 30 min on ice with antigen, cultured 48 hours

## G17RM_2-coil: SEQ ID 103: two rhesus monkey gastrin peptides of SEQ ID 99, branched linker and pepK coil (EGPWMEEEEAAYGGGK(EGPWMEEEEAAYGGG)GGSGGKVSALKEKVSALKEKVSALKEKVSALKEKVSALKE)
[1]
  IgG response to G17RM: no response

## [pGlu]GPWMEEEEAAYGGGSGGKVSALKEKVSALKEKVSALKEKVSALKEKVSALKE [G17-peptide]
[2]
  response against G17: no response

B1: immunogen 5: SEQ ID 30/75: ~29 T cell epitopes of ten Der p allergens with His tag, linkers and pepK coil (protein)
chain 1: GVLACAIATHAKIREQERLVKLETVKKSLEQEVRTLHVRIEEVEANALAGGDLRQMRTVTPIRMQGGCGSCWEAHEQQIRIMTTKLKEAEARQQYDIKYTWNVPKIAVNIVGYSNAQGVDYWIVRNSWDTNWYHNPHFIGNRSVITHLMEDLKGELDMRNIQVRGLKQMKRVGDANVKSEDDAFRHYDGRTIIQRDNGYQPNYLDEYWILTAAHCVDGQTVSKLIRSKVLGEKISYYRYVAREQSCRRPNAQRFGISNYCVVVTVKVMGDDELHTYFNVNYTMHYYLNNGATRDILDEYWILTAAHCVAGQTASKLSIRYNSLKHSLFKYRPFKVNELNLEGEFGRELQHKFRLMRNSQMEVEEGGGSHHHHHHGGGSCGGKVSALKEKVSALKEKVSALKEKVSALKEKVSALKE
chain 2: GVLACAIATHAKIREQERLVKLETVKKSLEQEVRTLHVRIEEVEANALAGGDLRQMRTVTPIRMQGGCGSCWEAHEQQIRIMTTKLKEAEARQQYDIKYTWNVPKIAVNIVGYSNAQGVDYWIVRNSWDTNWYHNPHFIGNRSVITHLMEDLKGELDMRNIQVRGLKQMKRVGDANVKSEDDAFRHYDGRTIIQRDNGYQPNYLDEYWILTAAHCVDGQTVSKLIRSKVLGEKISYYRYVAREQSCRRPNAQRFGISNYCVVVTVKVMGDDELHTYFNVNYTMHYYLNNGATRDILDEYWILTAAHCVAGQTASKLSIRYNSLKHSLFKYRPFKVNELNLEGEFGRELQHKFRLMRNSQMEVEEGGGSHHHHHHGGGSCGGKVSALKEKVSALKEKVSALKEKVSALKEKVSALKE
modifications: Immunogen-coil
[3]
  IFNg induction, response compared with Der p1: equally well
  IL-10 induction, response compared with Der p1: equally well

B2: immunogen 3: SEQ ID 23/74: Der P1 and Der P2 T cell epitopes with His tag, linker and pepK coil (protein)
chain 1: HHHHHHYYRYVAREQSCRRPNAQRFGISNYCQIYPPNVNKIREALAQTHSAIAVDLRQMRTVTPIRMQGGCGSCWAFSGVAATESAYLQQYDIKYTWNVPKIAPKSENVVVTVKVMGDDGVLACAIATHAKIRDDAFRHYDGRTIIQRDNGYQPNYHAVNIVGYSNAQGVDYWIVRNSWDTNWHEIKKVLVPGCHGSEPCIIHRGKPFGGGSGGGSCGGKVSALKEKVSALKEKVSALKEKVSALKEKVSALKE
chain 2: HHHHHHYYRYVAREQSCRRPNAQRFGISNYCQIYPPNVNKIREALAQTHSAIAVDLRQMRTVTPIRMQGGCGSCWAFSGVAATESAYLQQYDIKYTWNVPKIAPKSENVVVTVKVMGDDGVLACAIATHAKIRDDAFRHYDGRTIIQRDNGYQPNYHAVNIVGYSNAQGVDYWIVRNSWDTNWHEIKKVLVPGCHGSEPCIIHRGKPFGGGSGGGSGGKVSALKEKVSALKEKVSALKEKVSALKEKVSALKE
modifications: Immunogen-coil
[4]
  cytokine production (IL-10 and GM-CSF), response compared with Der p1: non-significant difference
[5]
  proliferation, response compared with Der p1: non-significant difference
[6]; [9]
  proliferation of PBMC: dose dependent stimulation
[6]; after warhead ScFV preincubation, positive control = PBMC cultured 48 h with 3 μg/ml Der p1 without washing
  stimulation relative to positive control: even higher than the positive control
[6]; preincubated immunogen in the absence of warhead (data not shown)
  proliferation of PBMC: did not lead to proliferation

B3: Der p1: house dust mite allergen used as comparator antigen (protein)
chain: TNACSINGNAPAEIDLRQMRTVTPIRMQGGCGSCWAFSGVAATESAYLAYRNQSLDLAEQELVDCASQHGCHGDTIPRGIEYIQHNGVVQESYYRYVAREQSCRRPNAQRFGISNYCQIYPPNVNKIREALAQTHSAIAVIIGIKDLDAFRHYDGRTIIQRDNGYQPNYHAVNIVGYSNAQGVDYWIVRNSWDTNWGDNGYGYFAANIDLMMIEEYPYVVIL
[6]; [9]
  proliferation of PBMC: did not lead to proliferation

B4: warhead (conjugate)
scFv: EVQLQQSGPELKKPGETVKISCKASGYTFTNYGMNWVKQAPGKGLKWMGWLNTYTGESIYPDDFKGRFAFSSETSASTAYLQINNLKNEDMATYFCARGDYGYDDPLDYWGQGTSVTVSSGGGGSGGGGSGGGGSDIVMTQAAPSVPVTPGESVSISCRSSKSLLHTNGNTYLHWFLQRPGQSPQLLIYRMSVLASGVPDRFSGSGSGTAFTLSISRVEAEDVGVFYCMQHLEYPLTFGAGTKLELKGSISAWSHPQFEKGPEVSALEKEVSALEKEVSALEKEVSALEKEVSALEK
[7]
  IgG1 response to mAb IV.3: strong
  IgG2a response to mAb IV.3: strong
[8]
  IgG1 response to ScFV-1-coil: strong
  IgG2a response to ScFV-1-coil: strong

B5: ScFV-1-coil: SEQ ID 70: ScFV derived from anti-CD32a mAb IV.3 with StrepTag II and pepE coil (protein)
scFv: EVQLQQSGPELKKPGETVKISCKASGYTFTNYGMNWVKQAPGKGLKWMGWLNTYTGESIYPDDFKGRFAFSSETSASTAYLQINNLKNEDMATYFCARGDYGYDDPLDYWGQGTSVTVSSGGGGSGGGGSGGGGSDIVMTQAAPSVPVTPGESVSISCRSSKSLLHTNGNTYLHWFLQRPGQSPQLLIYRMSVLASGVPDRFSGSGSGTAFTLSISRVEAEDVGVFYCMQHLEYPLTFGAGTKLELKGSISAWSHPQFEKGPEVSALEKEVSALEKEVSALEKEVSALEKEVSALEK
modifications: ScFV-coil
[8]
  IgG1 response to ScFV-1-coil: only in the presence of Alum
  IgG2a response to ScFV-1-coil: no IgG2a response

— patent US10434170B2, “Immunoregulatory vaccine” (S-TARGET THERAPEUTICS GMBH, priority 2012, dated 2019)
